# In the RNAGym collection of RNA variant scans (doi:10.1021/acssynbio.7b00057):
# B1: Pistol ribozyme (parent)
# chain: GGGUCGUUGUUCCAUAAUCGCGUGGAUAUGGCACGCAAGUUUCUACCGGGCACCGUAAAUGUCCGACUGGAGCCGUUCGGGCGGCUAUAAACAGACCUCAGGCCCGAAGCGUGGCGGCACCUGCCGCCGGUGGUAAAAAAGAUCGGAAGAGCACACGUCU
# Variants of: B1
# Assay: aptazyme ON/OFF ratio, guanine; higher = stronger switching; co-transcriptional cleavage with and without guanine
row,Variant,aptazyme ON/OFF ratio
1,GGGUCGGGCGGUUAUAAUCGCGUGGAUAUGGCACGCAAGUUUCUACCGGGCACCGUAAAUGUCCGACUGGAGCCGUUCGGGCGGCUAUAAACAGACCUCAGGCCCGAAGCGUGGCGGCACCUGCCGCCGGUGGUAAAAAAGAUCGGAAGAGCACACGUCU [U7G U8G G9C U10G U11G C12U C13U],1.17
2,GGGUCGGGCGGUGAUAAUCGCGUGGAUAUGGCACGCAAGUUUCUACCGGGCACCGUAAAUGUCCGACUGGAGCCGUUCGGGCGGCUAUAAACAGACCUCAGGCCCGAAGCGUGGCGGCACCUGCCGCCGGUGGUAAAAAAGAUCGGAAGAGCACACGUCU [U7G U8G G9C U10G U11G C12U C13G],1.05
3,GGGUCGGGCGGUAAUAAUCGCGUGGAUAUGGCACGCAAGUUUCUACCGGGCACCGUAAAUGUCCGACUGGAGCCGUUCGGGCGGCUAUAAACAGACCUCAGGCCCGAAGCGUGGCGGCACCUGCCGCCGGUGGUAAAAAAGAUCGGAAGAGCACACGUCU [U7G U8G G9C U10G U11G C12U C13A],1.14
4,GGGUCGGGCGGAGAUAAUCGCGUGGAUAUGGCACGCAAGUUUCUACCGGGCACCGUAAAUGUCCGACUGGAGCCGUUCGGGCGGCUAUAAACAGACCUCAGGCCCGAAGCGUGGCGGCACCUGCCGCCGGUGGUAAAAAAGAUCGGAAGAGCACACGUCU [U7G U8G G9C U10G U11G C12A C13G],1.15
5,GGGUCGGGCGGAAAUAAUCGCGUGGAUAUGGCACGCAAGUUUCUACCGGGCACCGUAAAUGUCCGACUGGAGCCGUUCGGGCGGCUAUAAACAGACCUCAGGCCCGAAGCGUGGCGGCACCUGCCGCCGGUGGUAAAAAAGAUCGGAAGAGCACACGUCU [U7G U8G G9C U10G U11G C12A C13A],1.09
6,GGGUCGGGCGGAUAUAAUCGCGUGGAUAUGGCACGCAAGUUUCUACCGGGCACCGUAAAUGUCCGACUGGAGCCGUUCGGGCGGCUAUAAACAGACCUCAGGCCCGAAGCGUGGCGGCACCUGCCGCCGGUGGUAAAAAAGAUCGGAAGAGCACACGUCU [U7G U8G G9C U10G U11G C12A C13U],1.09
7,GGGUCGGGCUACCAUAAUCGCGUGGAUAUGGCACGCAAGUUUCUACCGGGCACCGUAAAUGUCCGACUGGAGCCGUUCGGGCGGCUAUAAACAGACCUCAGGCCCGAAGCGUGGCGGCACCUGCCGCCGGUGGUAAAAAAGAUCGGAAGAGCACACGUCU [U7G U8G G9C U11A],4.32
8,GGGUCGGGCGCUUAUAAUCGCGUGGAUAUGGCACGCAAGUUUCUACCGGGCACCGUAAAUGUCCGACUGGAGCCGUUCGGGCGGCUAUAAACAGACCUCAGGCCCGAAGCGUGGCGGCACCUGCCGCCGGUGGUAAAAAAGAUCGGAAGAGCACACGUCU [U7G U8G G9C U10G U11C C12U C13U],1.11
9,GGGUCGGGCGCUGAUAAUCGCGUGGAUAUGGCACGCAAGUUUCUACCGGGCACCGUAAAUGUCCGACUGGAGCCGUUCGGGCGGCUAUAAACAGACCUCAGGCCCGAAGCGUGGCGGCACCUGCCGCCGGUGGUAAAAAAGAUCGGAAGAGCACACGUCU [U7G U8G G9C U10G U11C C12U C13G],1.33
10,GGGUCGGGCGCUAAUAAUCGCGUGGAUAUGGCACGCAAGUUUCUACCGGGCACCGUAAAUGUCCGACUGGAGCCGUUCGGGCGGCUAUAAACAGACCUCAGGCCCGAAGCGUGGCGGCACCUGCCGCCGGUGGUAAAAAAGAUCGGAAGAGCACACGUCU [U7G U8G G9C U10G U11C C12U C13A],1.15
11,GGGUCGGGCGGCCAUAAUCGCGUGGAUAUGGCACGCAAGUUUCUACCGGGCACCGUAAAUGUCCGACUGGAGCCGUUCGGGCGGCUAUAAACAGACCUCAGGCCCGAAGCGUGGCGGCACCUGCCGCCGGUGGUAAAAAAGAUCGGAAGAGCACACGUCU [U7G U8G G9C U10G U11G],1.26
12,GGGUCGGGCUAGGAUAAUCGCGUGGAUAUGGCACGCAAGUUUCUACCGGGCACCGUAAAUGUCCGACUGGAGCCGUUCGGGCGGCUAUAAACAGACCUCAGGCCCGAAGCGUGGCGGCACCUGCCGCCGGUGGUAAAAAAGAUCGGAAGAGCACACGUCU [U7G U8G G9C U11A C12G C13G],1.07
13,GGGUCGGGCUAGAAUAAUCGCGUGGAUAUGGCACGCAAGUUUCUACCGGGCACCGUAAAUGUCCGACUGGAGCCGUUCGGGCGGCUAUAAACAGACCUCAGGCCCGAAGCGUGGCGGCACCUGCCGCCGGUGGUAAAAAAGAUCGGAAGAGCACACGUCU [U7G U8G G9C U11A C12G C13A],1.12
14,GGGUCGGGCUAGUAUAAUCGCGUGGAUAUGGCACGCAAGUUUCUACCGGGCACCGUAAAUGUCCGACUGGAGCCGUUCGGGCGGCUAUAAACAGACCUCAGGCCCGAAGCGUGGCGGCACCUGCCGCCGGUGGUAAAAAAGAUCGGAAGAGCACACGUCU [U7G U8G G9C U11A C12G C13U],1.2
15,GGGUCGGGCGCCAAUAAUCGCGUGGAUAUGGCACGCAAGUUUCUACCGGGCACCGUAAAUGUCCGACUGGAGCCGUUCGGGCGGCUAUAAACAGACCUCAGGCCCGAAGCGUGGCGGCACCUGCCGCCGGUGGUAAAAAAGAUCGGAAGAGCACACGUCU [U7G U8G G9C U10G U11C C13A],1.09
16,GGGUCGGGCGCCGAUAAUCGCGUGGAUAUGGCACGCAAGUUUCUACCGGGCACCGUAAAUGUCCGACUGGAGCCGUUCGGGCGGCUAUAAACAGACCUCAGGCCCGAAGCGUGGCGGCACCUGCCGCCGGUGGUAAAAAAGAUCGGAAGAGCACACGUCU [U7G U8G G9C U10G U11C C13G],1.08
17,GGGUCGGGCGCCUAUAAUCGCGUGGAUAUGGCACGCAAGUUUCUACCGGGCACCGUAAAUGUCCGACUGGAGCCGUUCGGGCGGCUAUAAACAGACCUCAGGCCCGAAGCGUGGCGGCACCUGCCGCCGGUGGUAAAAAAGAUCGGAAGAGCACACGUCU [U7G U8G G9C U10G U11C C13U],1.05
18,GGGUCGGGCGGUCAUAAUCGCGUGGAUAUGGCACGCAAGUUUCUACCGGGCACCGUAAAUGUCCGACUGGAGCCGUUCGGGCGGCUAUAAACAGACCUCAGGCCCGAAGCGUGGCGGCACCUGCCGCCGGUGGUAAAAAAGAUCGGAAGAGCACACGUCU [U7G U8G G9C U10G U11G C12U],1.19

row,Variant,aptazyme ON/OFF ratio
1,GGGUCGGGCGGACAUAAUCGCGUGGAUAUGGCACGCAAGUUUCUACCGGGCACCGUAAAUGUCCGACUGGAGCCGUUCGGGCGGCUAUAAACAGACCUCAGGCCCGAAGCGUGGCGGCACCUGCCGCCGGUGGUAAAAAAGAUCGGAAGAGCACACGUCU [U7G U8G G9C U10G U11G C12A],1.11
2,GGGUCGGGCGGGCAUAAUCGCGUGGAUAUGGCACGCAAGUUUCUACCGGGCACCGUAAAUGUCCGACUGGAGCCGUUCGGGCGGCUAUAAACAGACCUCAGGCCCGAAGCGUGGCGGCACCUGCCGCCGGUGGUAAAAAAGAUCGGAAGAGCACACGUCU [U7G U8G G9C U10G U11G C12G],1.15
3,GGGUCGGGCGCUCAUAAUCGCGUGGAUAUGGCACGCAAGUUUCUACCGGGCACCGUAAAUGUCCGACUGGAGCCGUUCGGGCGGCUAUAAACAGACCUCAGGCCCGAAGCGUGGCGGCACCUGCCGCCGGUGGUAAAAAAGAUCGGAAGAGCACACGUCU [U7G U8G G9C U10G U11C C12U],1.04
4,GGGUCGGGCGGGGAUAAUCGCGUGGAUAUGGCACGCAAGUUUCUACCGGGCACCGUAAAUGUCCGACUGGAGCCGUUCGGGCGGCUAUAAACAGACCUCAGGCCCGAAGCGUGGCGGCACCUGCCGCCGGUGGUAAAAAAGAUCGGAAGAGCACACGUCU [U7G U8G G9C U10G U11G C12G C13G],1.17
5,GGGUCGGGCGGGUAUAAUCGCGUGGAUAUGGCACGCAAGUUUCUACCGGGCACCGUAAAUGUCCGACUGGAGCCGUUCGGGCGGCUAUAAACAGACCUCAGGCCCGAAGCGUGGCGGCACCUGCCGCCGGUGGUAAAAAAGAUCGGAAGAGCACACGUCU [U7G U8G G9C U10G U11G C12G C13U],1.1
6,GGGUCGGGCGGGAAUAAUCGCGUGGAUAUGGCACGCAAGUUUCUACCGGGCACCGUAAAUGUCCGACUGGAGCCGUUCGGGCGGCUAUAAACAGACCUCAGGCCCGAAGCGUGGCGGCACCUGCCGCCGGUGGUAAAAAAGAUCGGAAGAGCACACGUCU [U7G U8G G9C U10G U11G C12G C13A],1.06
7,GGGUCGGGCUAACAUAAUCGCGUGGAUAUGGCACGCAAGUUUCUACCGGGCACCGUAAAUGUCCGACUGGAGCCGUUCGGGCGGCUAUAAACAGACCUCAGGCCCGAAGCGUGGCGGCACCUGCCGCCGGUGGUAAAAAAGAUCGGAAGAGCACACGUCU [U7G U8G G9C U11A C12A],1.31
8,GGGUCGGGCUAGCAUAAUCGCGUGGAUAUGGCACGCAAGUUUCUACCGGGCACCGUAAAUGUCCGACUGGAGCCGUUCGGGCGGCUAUAAACAGACCUCAGGCCCGAAGCGUGGCGGCACCUGCCGCCGGUGGUAAAAAAGAUCGGAAGAGCACACGUCU [U7G U8G G9C U11A C12G],1.17
9,GGGUCGGGCUAUCAUAAUCGCGUGGAUAUGGCACGCAAGUUUCUACCGGGCACCGUAAAUGUCCGACUGGAGCCGUUCGGGCGGCUAUAAACAGACCUCAGGCCCGAAGCGUGGCGGCACCUGCCGCCGGUGGUAAAAAAGAUCGGAAGAGCACACGUCU [U7G U8G G9C U11A C12U],1.53
10,GGGUCGGGCGGCUAUAAUCGCGUGGAUAUGGCACGCAAGUUUCUACCGGGCACCGUAAAUGUCCGACUGGAGCCGUUCGGGCGGCUAUAAACAGACCUCAGGCCCGAAGCGUGGCGGCACCUGCCGCCGGUGGUAAAAAAGAUCGGAAGAGCACACGUCU [U7G U8G G9C U10G U11G C13U],1.28
11,GGGUCGGGCGGCGAUAAUCGCGUGGAUAUGGCACGCAAGUUUCUACCGGGCACCGUAAAUGUCCGACUGGAGCCGUUCGGGCGGCUAUAAACAGACCUCAGGCCCGAAGCGUGGCGGCACCUGCCGCCGGUGGUAAAAAAGAUCGGAAGAGCACACGUCU [U7G U8G G9C U10G U11G C13G],1.17
12,GGGUCGGGCGGCAAUAAUCGCGUGGAUAUGGCACGCAAGUUUCUACCGGGCACCGUAAAUGUCCGACUGGAGCCGUUCGGGCGGCUAUAAACAGACCUCAGGCCCGAAGCGUGGCGGCACCUGCCGCCGGUGGUAAAAAAGAUCGGAAGAGCACACGUCU [U7G U8G G9C U10G U11G C13A],1.18
13,GGGUCGGGCUAAUAUAAUCGCGUGGAUAUGGCACGCAAGUUUCUACCGGGCACCGUAAAUGUCCGACUGGAGCCGUUCGGGCGGCUAUAAACAGACCUCAGGCCCGAAGCGUGGCGGCACCUGCCGCCGGUGGUAAAAAAGAUCGGAAGAGCACACGUCU [U7G U8G G9C U11A C12A C13U],1.16
14,GGGUCGGGCUAAAAUAAUCGCGUGGAUAUGGCACGCAAGUUUCUACCGGGCACCGUAAAUGUCCGACUGGAGCCGUUCGGGCGGCUAUAAACAGACCUCAGGCCCGAAGCGUGGCGGCACCUGCCGCCGGUGGUAAAAAAGAUCGGAAGAGCACACGUCU [U7G U8G G9C U11A C12A C13A],1.14
15,GGGUCGGGCUAAGAUAAUCGCGUGGAUAUGGCACGCAAGUUUCUACCGGGCACCGUAAAUGUCCGACUGGAGCCGUUCGGGCGGCUAUAAACAGACCUCAGGCCCGAAGCGUGGCGGCACCUGCCGCCGGUGGUAAAAAAGAUCGGAAGAGCACACGUCU [U7G U8G G9C U11A C12A C13G],1.05
16,GGGUCGGGCGCGAAUAAUCGCGUGGAUAUGGCACGCAAGUUUCUACCGGGCACCGUAAAUGUCCGACUGGAGCCGUUCGGGCGGCUAUAAACAGACCUCAGGCCCGAAGCGUGGCGGCACCUGCCGCCGGUGGUAAAAAAGAUCGGAAGAGCACACGUCU [U7G U8G G9C U10G U11C C12G C13A],1.19
17,GGGUCGGGCGCGGAUAAUCGCGUGGAUAUGGCACGCAAGUUUCUACCGGGCACCGUAAAUGUCCGACUGGAGCCGUUCGGGCGGCUAUAAACAGACCUCAGGCCCGAAGCGUGGCGGCACCUGCCGCCGGUGGUAAAAAAGAUCGGAAGAGCACACGUCU [U7G U8G G9C U10G U11C C12G C13G],1.05
18,GGGUCGGGCGCGUAUAAUCGCGUGGAUAUGGCACGCAAGUUUCUACCGGGCACCGUAAAUGUCCGACUGGAGCCGUUCGGGCGGCUAUAAACAGACCUCAGGCCCGAAGCGUGGCGGCACCUGCCGCCGGUGGUAAAAAAGAUCGGAAGAGCACACGUCU [U7G U8G G9C U10G U11C C12G C13U],1.16
